46 sequences from the Immune Epitope Database (IEDB) can be followed below.

What is called IC50 is the point on the concentration scale where inhibition reaches its midpoint.

One assay addresses HLA-B*38:01. Nature of the assay: IEDB peptide-MHC binding, purified MHC/competitive/radioactivity; ≥ and ≤ were set here for values at or beyond the usual limits of such assays.
For another assay, the target named is HLA-B*39:06. Described as above.
Where [1] appears, read: source organism: Simian immunodeficiency virus.
Where [2] appears, read: source organism: Human immunodeficiency virus 1.

Regarding NHLPRELIF, the IC50 in the assay with HLA-B*38:01 (setting [1]) was found to be 1120 nM. For the sequence IEHDVVMKA, in the assay with HLA-B*39:06 (source organism: Homo sapiens), the IC50 was 137 nM. On the same count and under the same terms, in the case of THNYGIGAA it was 15 nM. With EHTPGVHMA, the IC50 with HLA-B*39:06 (source organism: Mus musculus) amounted to 1210 nM. As for KTQKEYALF, in the assay with HLA-B*38:01 (setting [2]), the IC50 turned out to be 40600 nM. NRYDGIYKV: the IC50 with HLA-B*39:06 (source organism: Homo sapiens) came out at 371 nM. The same measure, in the same setting: in the case of LQHPFVRSA it was 7.7 nM; in that of HRLEGLREA, 9.6 nM.

As to VPSLQYLAL, in the assay with HLA-B*38:01 (setting [1]), the IC50 was determined as 1530 nM.

As to INSEMFLRS, the IC50 with HLA-B*39:06 (source organism: Mus musculus) was at least 77000 nM. On to SRYLGKITA, for which the IC50 with HLA-B*39:06 (source organism: Homo sapiens) came out at 8.1 nM. Turning to DRFGLAESL, in the assay with HLA-B*38:01 (setting [1]), the IC50 was 30 nM. For IHIPGDTLF, in the assay with HLA-B*38:01 (source organism: Vaccinia virus), the IC50 worked out at 11 nM. Consider MALWMRFLP, for which the IC50 with HLA-B*39:06 (source organism: Mus musculus) came out at 11900 nM. For the sequence KRHKEFALF, the IC50 in the assay with HLA-B*38:01 (setting [2]) came to 1100 nM. Still for that read-out and setting: in the case of KMQKEHALF it was 12100 nM. In the case of FRYQGHVGA, the IC50 with HLA-B*39:06 (source organism: Homo sapiens) was found to be 1.7 nM. Turning to WHLGQGVSI, the IC50 with HLA-B*38:01 (setting [2]) turned out to be 10 nM. As to MHEDIISLW, the IC50 in the assay with HLA-B*38:01 (setting [2]) worked out at 53 nM. For the sequence WLFSNCRTL, in the assay with HLA-B*38:01 (setting [1]), the IC50 worked out at 993 nM. On to TNVFLFLFA, for which the IC50 with HLA-B*39:06 (source organism: Mus musculus) turned out to be 68800 nM. For the sequence GRSIAFHSA, the IC50 with HLA-B*39:06 (source organism: Homo sapiens) is 40 nM.

Take DHHLPPPAA: the IC50 with HLA-B*39:06 (source organism: Homo sapiens) was determined as 72 nM.

As to NETWYSADL, in the assay with HLA-B*38:01 (setting [1]), the IC50 is 3920 nM.

On to IHIDSTPFA, for which the IC50 with HLA-B*39:06 (source organism: Mus musculus) came out at 2200 nM. As to FRQYTAFTL, the IC50 with HLA-B*38:01 (setting [1]) came to 17 nM. The same measure, in the same setting: as for THIQQDPAL, the figure is 148 nM. On to NRVMLPKAA, for which, in the assay with HLA-B*39:06 (source organism: Homo sapiens), the half-maximal inhibitory concentration (IC50) was 2.7 nM. TQRLIRESA: the concentration for half-maximal inhibition (IC50) with HLA-B*39:06 (source organism: Homo sapiens) was 11 nM.

Regarding YYDEKVVKL, the IC50 with HLA-B*39:06 (source organism: Homo sapiens) turned out to be 3730 nM.

On to IHGQANSDL, for which the IC50 with HLA-B*38:01 (setting [1]) turned out to be 2360 nM. As to NHINVELSL, in the assay with HLA-B*39:06 (source organism: Homo sapiens), the IC50 came out at 27900 nM. The same measure, in the same setting: as for ARFTGIKTA, the figure is 6 nM. For RHDITGFIL, the concentration for half-maximal inhibition (IC50) in the assay with HLA-B*38:01 (source organism: Variola virus) is 6.4 nM. Consider ERMKLVVQA, for which the IC50 with HLA-B*39:06 (source organism: Homo sapiens) is 15 nM. With YKEPNSIIL, in the assay with HLA-B*38:01 (source organism: Variola virus), the IC50 worked out at 4730 nM. Regarding TFDVAPSRL, the IC50 with HLA-B*39:06 (source organism: Homo sapiens) turned out to be 353 nM. For THTNGVRLL, the IC50 with HLA-B*38:01 (setting [1]) is 617 nM. With TRYQIPKEV, the IC50 with HLA-B*39:06 (source organism: Homo sapiens) amounted to 450 nM.

Regarding EAFEHTPGV, the IC50 in the assay with HLA-B*39:06 (source organism: Mus musculus) was at least 77000 nM.

As for YRFIKIPTH, the IC50 with HLA-B*39:06 (source organism: Mus musculus) came to 1350 nM. Consider YHDIKRITA, for which, in the assay with HLA-B*39:06 (source organism: Homo sapiens), the IC50 was found to be 17 nM. Take LVAEAFEHT: the concentration for half-maximal inhibition (IC50) in the assay with HLA-B*39:06 (source organism: Mus musculus) was at least 76100 nM. With ERFYGKYTA, in the assay with HLA-B*39:06 (source organism: Homo sapiens), the IC50 is 9.2 nM. For GHQAAMQML, the IC50 with HLA-B*38:01 (setting [2]) turned out to be 1020 nM.

DHQAAMQII: the IC50 with HLA-B*38:01 (setting [1]) is 125 nM.
